These results are taken from the supplement of paper PMC10126150.

± gives the standard deviation of the averaged measurements.

This data set deals with ATP. As to the kind of experiment: switch fluorescence ratio, 500 uM ATP over buffer (Cy3 cluster intensity, sum of 5 cycles each) (fold (ratio)); higher = stronger signal-on switching upon ATP binding; sequences stand for … in TCGTCGGCAGCGTCAGATGTGTATAAGAGACAGTTTTTTTTTTTTTTTTTTTTTTTTT…TC. Conditions: aptamer strand: ATP DNA aptamer (quencher-CACCTGGGGGAGTATTGCGGAGGAAGG + anchor), 100 nM annealed; ATP concentration: 500 uM. The method, boiled down:
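Cy3-labelled switching-strand clusters on a modified Illumina MiSeq flow-cell were annealed to 100 nM quencher-labelled ATP aptamer and imaged first in selection buffer, then after 15 min with 500 uM ATP at 22 °C. NaOH stripping and re-annealing separated each of five buffer/ATP cycles, and clusters outside 100-1000 RFU were excluded. The fluorescence ratio sums target-cycle Cy3 intensity over buffer-cycle Cy3 intensity per cluster and averages it per switch-domain sequence.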
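Further: ATP exposure 15 min at 22 °C before imaging.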

In the case of TGGGGGGGAC, the switch fluorescence ratio was found to be 1.04 ± 0.069.

On to AGGGATGAGA, for which the switch fluorescence ratio came out at 0.9965 ± 0.0024.

For CAATGGGTAC, the switch fluorescence ratio worked out at 0.969 ± 0.024.

As for CCAGTTTTTC, the switch fluorescence ratio stood at 1.01 ± 0.019.

As for GGATGTGAAA, the switch fluorescence ratio stood at 0.9851 ± 0.0046.

Regarding TTTGGATTCC, the switch fluorescence ratio was determined as 0.998 ± 0.034.

Regarding CAAGTGCTTG, the switch fluorescence ratio was found to be 1.03 ± 0.014.

With GCTCGATGTG, the switch fluorescence ratio amounted to 1 ± 0.015.

On to AGGGGGCCTT, for which the switch fluorescence ratio was determined as 1.0113 ± 0.00015.

Regarding TCAGGGCGAA, the switch fluorescence ratio is 0.995 ± 0.016.

Turning to GGATTTTCAC, the switch fluorescence ratio amounted to 1 ± 0.03.

As for AGTGGGTATT, the switch fluorescence ratio stood at 1.01 ± 0.016.

With GACTTGATTA, the switch fluorescence ratio turned out to be 0.9719 ± 0.0062.

On to TGTGTTGGGA, for which the switch fluorescence ratio was found to be 0.98 ± 0.016.

For the sequence TTTGAAAGGA, the switch fluorescence ratio stood at 1.01 ± 0.032.

On to TGTTGGTTAG, for which the switch fluorescence ratio worked out at 0.989 ± 0.014.

In the case of AGTAGGTCTG, the switch fluorescence ratio was found to be 1.04 ± 0.046.

In the case of ACTGCCTTCA, the switch fluorescence ratio turned out to be 1.52 ± 0.12.

Turning to TCAGGGCGCA, the switch fluorescence ratio was found to be 1.03 ± 0.079.

Take TAAGTTAGTA: the switch fluorescence ratio stood at 0.9786 ± 0.0091.

As to TTCCGTTCAG, the switch fluorescence ratio was determined as 1.03 ± 0.0075.

Consider GATTACAGGG, for which the switch fluorescence ratio turned out to be 0.957 ± 0.038.

For GTGTTATCGT, the switch fluorescence ratio came out at 0.969 ± 0.045.

As for GAGGTTTGTA, the switch fluorescence ratio is 0.974 ± 0.013.

For the sequence CGGGGGCTTT, the switch fluorescence ratio was determined as 0.99 ± 0.017.

As to GAACGCGTCC, the switch fluorescence ratio was 1.1 ± 0.015.

As to ACCGGGGCTC, the switch fluorescence ratio stood at 1.05 ± 0.052.

On to GATCGATCGT, for which the switch fluorescence ratio was determined as 1 ± 0.027.

In the case of GTAATTGTAA, the switch fluorescence ratio turned out to be 0.984 ± 0.012.

Turning to CGTGCACATT, the switch fluorescence ratio is 0.983 ± 0.012.

Take GCCTGTAGGA: the switch fluorescence ratio stood at 1.01 ± 0.015.

Consider TCGGGGCCGT, for which the switch fluorescence ratio amounted to 0.971 ± 0.059.

Consider TCTTAGCGCG, for which the switch fluorescence ratio stood at 1.07 ± 0.041.

Consider AAGAGGGGCT, for which the switch fluorescence ratio was 1.015 ± 0.0018.

As for TGGGTGAAAA, the switch fluorescence ratio is 1.001 ± 0.0036.

For TTGCTGGGCC, the switch fluorescence ratio is 1.02 ± 0.088.

For the sequence AAGCGGGTGG, the switch fluorescence ratio is 1.05 ± 0.028.

With CAAGGGCGGG, the switch fluorescence ratio is 0.997 ± 0.063.

As to TTGTTGTGCT, the switch fluorescence ratio turned out to be 0.961 ± 0.033.

Consider TGTTAAATGT, for which the switch fluorescence ratio was 1.005 ± 0.01.

On to TTTTTGAACG, for which the switch fluorescence ratio was found to be 1.02 ± 0.018.

ATGGATGACT: the switch fluorescence ratio was found to be 1.04 ± 0.018.

For the sequence TTAATCAGAT, the switch fluorescence ratio stood at 0.9533 ± 0.0093.

As for GGGTTTTCGT, the switch fluorescence ratio is 0.9538 ± 0.0032.

For TTAGGATGTG, the switch fluorescence ratio came out at 0.984 ± 0.022.

Regarding GTAGTTCATG, the switch fluorescence ratio is 0.96 ± 0.018.

For CATTTGCGCA, the switch fluorescence ratio was found to be 1.022 ± 0.0084.

As to GCTGGGGTTA, the switch fluorescence ratio came to 0.996 ± 0.019.

Turning to GATATGAGGG, the switch fluorescence ratio came to 1.029 ± 0.0037.

In the case of TAGTAACGGT, the switch fluorescence ratio is 0.996 ± 0.053.

As to AGATTTGTTG, the switch fluorescence ratio was 0.978 ± 0.034.

Take CGGCCAATAA: the switch fluorescence ratio was determined as 3.19 ± 0.12.

On to GACATTTTTT, for which the switch fluorescence ratio came out at 0.978 ± 0.036.

Regarding GGTGTGATTT, the switch fluorescence ratio was 1 ± 0.025.

On to TTTGAGCATT, for which the switch fluorescence ratio came out at 1.04 ± 0.043.

On to GTGTCGGATC, for which the switch fluorescence ratio is 1.06 ± 0.023.

Consider TGTTTTTAA, for which the switch fluorescence ratio was 1 ± 0.062.

For GCATGAAGCA, the switch fluorescence ratio is 1 ± 0.017.

On to GGGGGGTACC, for which the switch fluorescence ratio came out at 1.08 ± 0.13.

Regarding GTTGAAGTTT, the switch fluorescence ratio turned out to be 0.9846 ± 0.0073.

As for AAAAGGGGTT, the switch fluorescence ratio amounted to 1.02 ± 0.043.

With TTCAGGACTC, the switch fluorescence ratio stood at 0.973 ± 0.045.

For the sequence AGGCACGCTG, the switch fluorescence ratio came to 1.02 ± 0.014.

As for AGACTGCTGG, the switch fluorescence ratio is 0.977 ± 0.018.

Consider GATAGGATTG, for which the switch fluorescence ratio came out at 0.987 ± 0.022.

Consider CGGTCAACG, for which the switch fluorescence ratio turned out to be 0.993 ± 0.022.

Take AAATTTGGGG: the switch fluorescence ratio stood at 1 ± 0.038.

Turning to CGCTGGGTCA, the switch fluorescence ratio was found to be 1.04 ± 0.13.

As to AAAATCGACC, the switch fluorescence ratio came to 1.08 ± 0.011.

With AAAAATGTAT, the switch fluorescence ratio came out at 0.975 ± 0.019.

Take AAGTTCACGT: the switch fluorescence ratio came out at 0.996 ± 0.02.

As to TATTAGATTT, the switch fluorescence ratio was 0.996 ± 0.014.

Regarding TCGGGATCGG, the switch fluorescence ratio was 1 ± 0.015.

As for GAAGTTTCTA, the switch fluorescence ratio worked out at 0.999 ± 0.0069.

Regarding AAAAAAATGT, the switch fluorescence ratio is 1.054 ± 0.01.

On to AGGAGGGTTT, for which the switch fluorescence ratio is 0.999 ± 0.032.

As to GTGTGTGGGG, the switch fluorescence ratio is 1.01 ± 0.048.

Regarding TTTGAGAGTA, the switch fluorescence ratio was 0.96 ± 0.028.

Take GTGAAAGTGG: the switch fluorescence ratio was found to be 0.979 ± 0.028.

As to GATTCAGGAG, the switch fluorescence ratio was 1 ± 0.032.

AATTTGGTTT: the switch fluorescence ratio is 1.02 ± 0.021.

Consider GTTTGGGGTG, for which the switch fluorescence ratio amounted to 0.999 ± 0.043.

With TGAATGACGG, the switch fluorescence ratio stood at 0.993 ± 0.026.

On to GGTGTGGGAT, for which the switch fluorescence ratio worked out at 1.01 ± 0.057.

On to ATTTTGCGAT, for which the switch fluorescence ratio amounted to 1.01 ± 0.015.

On to TTTAGTTGAT, for which the switch fluorescence ratio came to 1.01 ± 0.031.

Regarding ATCGAGGGA, the switch fluorescence ratio was found to be 0.995 ± 0.061.

Regarding ATTTTTATCC, the switch fluorescence ratio is 1.022 ± 0.0068.

As to TTTGGCTTCT, the switch fluorescence ratio worked out at 1.04 ± 0.073.

Consider GTCGTTAGGA, for which the switch fluorescence ratio came to 1.01 ± 0.0038.

TACGGTGCAG: the switch fluorescence ratio came out at 0.981 ± 0.024.

On to TTATTAAACG, for which the switch fluorescence ratio came out at 1.015 ± 0.0029.

Turning to TTTCTTTCGT, the switch fluorescence ratio is 1.12 ± 0.16.

In the case of ACAAGGGAAG, the switch fluorescence ratio was found to be 0.988 ± 0.015.

For TAAAAGCGGG, the switch fluorescence ratio was 1 ± 0.013.

On to CGGTTGACTT, for which the switch fluorescence ratio came to 0.992 ± 0.057.

Take AAGGCTGAGT: the switch fluorescence ratio was 1 ± 0.0011.

Turning to GCGTAGGGCC, the switch fluorescence ratio was found to be 1.03 ± 0.027.

Turning to TTTGTTTTCA, the switch fluorescence ratio worked out at 0.989 ± 0.034.

On to GTTTATGTAG, for which the switch fluorescence ratio stood at 1.01 ± 0.0096.

GCGAGGGGTG: the switch fluorescence ratio came out at 1.02 ± 0.048.

Regarding GGAGATTTGG, the switch fluorescence ratio came to 0.979 ± 0.011.

For the sequence ATGTTTGGGA, the switch fluorescence ratio is 0.967 ± 0.047.

As for TTTAAAGGCA, the switch fluorescence ratio stood at 0.991 ± 0.011.

Consider GGGATTGCGG, for which the switch fluorescence ratio stood at 1.12 ± 0.23.

For the sequence AATCCTGGCG, the switch fluorescence ratio worked out at 1.01 ± 0.032.

As to GAGTCAATTT, the switch fluorescence ratio is 1.0118 ± 0.00063.

As for GGTTTGTGTT, the switch fluorescence ratio turned out to be 0.974 ± 0.017.

As for AAACACCGGG, the switch fluorescence ratio was 1.11 ± 0.031.

Regarding CCAGTTTGTG, the switch fluorescence ratio was 1.018 ± 0.0037.

For the sequence GGTCGGTGCG, the switch fluorescence ratio came to 0.9914 ± 0.0098.

Take AAGTAAGTTG: the switch fluorescence ratio was 0.9806 ± 0.0064.

As for TTTTGAGGG, the switch fluorescence ratio came to 1.07 ± 0.061.

As to CCAGGGCGGC, the switch fluorescence ratio stood at 0.854 ± 0.019.

Turning to AATGTCTCAG, the switch fluorescence ratio was 1.014 ± 0.0091.

Take TTAGGCGGGC: the switch fluorescence ratio came to 1.02 ± 0.027.

CATGTATTTT: the switch fluorescence ratio turned out to be 0.991 ± 0.041.

AGGGGGAAAC: the switch fluorescence ratio turned out to be 1.01 ± 0.027.

AAAGGTGCCA: the switch fluorescence ratio is 1.05 ± 0.015.

AAAGGGCTCT: the switch fluorescence ratio came out at 0.9821 ± 0.0078.
